T1: human pyruvate dehydrogenase (E1p) component, heterotetramer alpha2beta2 (Homo sapiens, UniProt P08559+P11177)
T1 sequence (P08559 30-390): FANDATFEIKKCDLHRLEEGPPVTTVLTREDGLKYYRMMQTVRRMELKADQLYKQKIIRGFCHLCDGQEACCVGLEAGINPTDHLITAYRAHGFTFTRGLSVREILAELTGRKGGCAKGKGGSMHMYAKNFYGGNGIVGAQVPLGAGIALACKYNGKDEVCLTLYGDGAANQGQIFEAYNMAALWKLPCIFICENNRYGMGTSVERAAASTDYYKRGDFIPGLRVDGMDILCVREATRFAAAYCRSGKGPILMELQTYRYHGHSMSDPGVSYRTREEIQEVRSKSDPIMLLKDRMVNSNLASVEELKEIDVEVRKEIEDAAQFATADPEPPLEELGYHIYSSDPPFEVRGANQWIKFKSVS
T1 sequence (P11177 31-359): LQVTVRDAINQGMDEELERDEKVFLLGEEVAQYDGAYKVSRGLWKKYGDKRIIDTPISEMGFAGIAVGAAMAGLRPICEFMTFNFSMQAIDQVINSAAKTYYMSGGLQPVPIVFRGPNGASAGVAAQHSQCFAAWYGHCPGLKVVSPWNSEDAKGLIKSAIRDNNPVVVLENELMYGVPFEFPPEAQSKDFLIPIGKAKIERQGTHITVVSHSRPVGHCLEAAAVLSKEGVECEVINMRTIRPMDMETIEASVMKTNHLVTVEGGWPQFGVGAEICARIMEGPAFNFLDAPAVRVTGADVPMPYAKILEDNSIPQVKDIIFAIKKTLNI

T2: human pyruvate dehydrogenase (E1p) component, heterotetramer alpha2beta2 (Homo sapiens, UniProt P08559+P11177, P08559:Y118F)
T2 sequence (P08559 30-390 Y118F): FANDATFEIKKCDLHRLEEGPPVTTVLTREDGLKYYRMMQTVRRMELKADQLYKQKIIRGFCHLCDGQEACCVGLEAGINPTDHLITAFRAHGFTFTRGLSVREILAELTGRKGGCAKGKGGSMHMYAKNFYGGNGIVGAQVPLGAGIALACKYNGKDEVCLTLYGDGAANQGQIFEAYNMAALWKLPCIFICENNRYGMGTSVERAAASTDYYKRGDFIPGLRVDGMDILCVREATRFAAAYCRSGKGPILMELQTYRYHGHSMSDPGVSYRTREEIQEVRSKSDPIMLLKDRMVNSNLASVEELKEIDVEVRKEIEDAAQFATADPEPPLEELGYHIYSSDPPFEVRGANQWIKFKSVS
T2 sequence (P11177 31-359): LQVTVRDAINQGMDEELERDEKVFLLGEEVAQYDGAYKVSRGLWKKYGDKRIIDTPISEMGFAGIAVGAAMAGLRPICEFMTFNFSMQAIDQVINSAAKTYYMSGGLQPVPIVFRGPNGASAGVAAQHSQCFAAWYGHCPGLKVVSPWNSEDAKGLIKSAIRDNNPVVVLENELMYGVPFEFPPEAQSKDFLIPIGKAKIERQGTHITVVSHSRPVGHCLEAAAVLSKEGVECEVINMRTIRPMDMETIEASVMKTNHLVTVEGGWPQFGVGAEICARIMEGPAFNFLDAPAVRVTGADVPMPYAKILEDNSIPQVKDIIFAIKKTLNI

T3: E1p-α subunit of S1-E1p (S271A-α, S203A-α) (human, UniProt P08559 30-390, S271A-α | S203A-α)
T3 sequence: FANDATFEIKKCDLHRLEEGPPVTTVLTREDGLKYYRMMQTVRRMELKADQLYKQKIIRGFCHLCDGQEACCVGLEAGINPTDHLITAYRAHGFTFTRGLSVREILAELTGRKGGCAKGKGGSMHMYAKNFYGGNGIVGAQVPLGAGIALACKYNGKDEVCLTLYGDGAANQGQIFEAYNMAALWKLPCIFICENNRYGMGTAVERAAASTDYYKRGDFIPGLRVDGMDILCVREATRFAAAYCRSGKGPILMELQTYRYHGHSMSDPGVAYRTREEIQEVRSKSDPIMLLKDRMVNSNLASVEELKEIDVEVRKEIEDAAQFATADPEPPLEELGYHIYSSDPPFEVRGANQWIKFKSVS

T4: E1p-α subunit of wild-type human E1p (human, UniProt P08559 30-390)
T4 sequence: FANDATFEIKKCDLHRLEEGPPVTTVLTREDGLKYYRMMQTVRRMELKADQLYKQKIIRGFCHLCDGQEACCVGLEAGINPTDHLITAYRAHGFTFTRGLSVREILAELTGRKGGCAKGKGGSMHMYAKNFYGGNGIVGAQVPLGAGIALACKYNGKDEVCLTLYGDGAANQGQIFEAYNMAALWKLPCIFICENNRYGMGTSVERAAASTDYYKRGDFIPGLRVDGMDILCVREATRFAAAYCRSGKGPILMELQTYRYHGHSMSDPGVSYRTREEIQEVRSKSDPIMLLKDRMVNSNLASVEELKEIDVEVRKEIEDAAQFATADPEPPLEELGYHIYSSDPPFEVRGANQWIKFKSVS

T5: E1p-α subunit of Y89F-α mutant E1p (human, UniProt P08559 30-390, Y89F-α)
T5 sequence: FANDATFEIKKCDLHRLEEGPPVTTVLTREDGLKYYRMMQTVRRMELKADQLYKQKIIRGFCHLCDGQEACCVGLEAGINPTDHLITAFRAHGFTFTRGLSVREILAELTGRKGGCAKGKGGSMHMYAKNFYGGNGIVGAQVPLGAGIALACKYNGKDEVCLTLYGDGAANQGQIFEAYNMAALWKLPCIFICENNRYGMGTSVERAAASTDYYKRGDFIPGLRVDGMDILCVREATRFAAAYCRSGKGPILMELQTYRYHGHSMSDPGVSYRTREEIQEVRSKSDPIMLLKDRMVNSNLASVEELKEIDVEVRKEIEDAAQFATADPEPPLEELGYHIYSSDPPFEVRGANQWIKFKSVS


Legend:
[1] = biological target: T1, human pyruvate dehydrogenase (E1p) component, heterotetramer alpha2beta2; test: tryptophan fluorescence quenching; format: binding
[2] = biological target: T2, human pyruvate dehydrogenase (E1p) component, heterotetramer alpha2beta2; test: tryptophan fluorescence quenching; format: binding
[3] = biological target: T3, E1p-α subunit of S1-E1p (S271A-α, …); test: crystal structure
[4] = biological target: T4, E1p-α subunit of wild-type human E1p; test: crystal structure
[5] = biological target: T5, E1p-α subunit of Y89F-α mutant E1p; test: crystal structure

Kd [1]	Kd [2]	binding result [3]	binding result [4]	binding result [5]	Molecule
0.11 ± 0.01 µM	50.2 ± 4.6 µM				Cc1ncc(C[n+]2csc(CCO[P@](=O)(O)OP(=O)(O)O)c2C)c(N)n1 [ThDP]
		binds	binds	binds	E1p-β subunit of human E1p (natural protein) LQVTVRDAINQGMDEELERDEKVFLLGEEVAQYDGAYKVSRGLWKKYGDKRIIDTPISEMGFAGIAVGAAMAGLRPICEFMTFNFSMQAIDQVINSAAKTYYMSGGLQPVPIVFRGPNGASAGVAAQHSQCFAAWYGHCPGLKVVSPWNSEDAKGLIKSAIRDNNPVVVLENELMYGVPFEFPPEAQSKDFLIPIGKAKIERQGTHITVVSHSRPVGHCLEAAAVLSKEGVECEVINMRTIRPMDMETIEASVMKTNHLVTVEGGWPQFGVGAEICARIMEGPAFNFLDAPAVRVTGADVPMPYAKILEDNSIPQVKDIIFAIKKTLNI

From paper PMC2849990 (Structure (London, England : 1993), 2008)
